Columns and labels:
HeLa Kyoto [1] = test: melting temperature (median over replicates), in situ; higher = more thermally stable
HeLa Kyoto [2] = test: thermal stability score vs G1/S (z-score of summed log2 fold changes over temperatures); higher = more thermally stable than in G1/S
HeLa Kyoto [3] = test: solubility in G1/S (NP-40 vs SDS abundance) (log2 ratio); higher = more soluble; settings: cell cycle stage: G1/S
HeLa Kyoto [4] = test: solubility change mitosis vs G1/S (difference of NP-40 vs SDS log2 ratios) (log2 ratio difference); higher = more soluble in mitosis
[5] = cell cycle stage: early G1 (4.5 h after nocodazole release)
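Wherever melting temperature (median over replicates), in situ is given: HeLa Kyoto cells synchronized by double thymidine or nocodazole block, proteins quantified by TMT10plex mass spectrometry, three independent biological replicates.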
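Wherever solubility change mitosis vs G1/S (difference of NP-40 vs SDS log2 ratios) is given: synchronized HeLa Kyoto cells (double thymidine block for G1/S, nocodazole release for mitosis), protein amounts in NP-40 versus SDS lysates quantified by mass spectrometry, three biological replicates.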
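Wherever solubility in G1/S (NP-40 vs SDS abundance) is given: HeLa Kyoto cells arrested at G1/S by double thymidine block, proteins quantified by TMT10plex mass spectrometry in mild NP-40 versus SDS extracts, three biological replicates.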
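Wherever thermal stability score vs G1/S (z-score of summed log2 fold changes over temperatures) is given: synchronized HeLa Kyoto cells, proteins quantified by TMT10plex mass spectrometry, three biological replicates, mitosis taken 0.5 h after nocodazole release, G1/S directly after double thymidine block.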

MAMARLGSWLGEAQWLALVSLFVAALATVGLYLAQWALARARPQPQRRAVEPGEGPRPGSDALLSWILTLGSWRSQWQAAWVTALNEEAERKGGPPFLSFEEDPRQQALELVVQEVSSVLRSAEEKVVVCHVVGQAIQFLVSETPALGAGCRLYDMRLSPFHLQLEFHMKEKREDLQISWSFISVPEMAVNIQPKALGEDQVAETSAMSDVLKDILKHLAGSASPSVVLITKPTTVKEAQNLQCAASTAQESCPPKPPRAHELKLLVRNIHVLLLSEPGASGHINAVCVVQLNDPVQRFSSTLTKNTPDLMWEEEFTFELNAKSKELHLQISEAGRSSEGLLATATVPLDLFKKQPSGPQSFTLTSGSACGSSVLGSVTAEFSYMEPGELKSWPIPPPVPAAKIEKDRTVMPCGTVVTTVTAVKTKPRVDVGRASPLSSDSPVKTPIKVKVIEKDISVQAIACRSAPVSKTLSSSDTELLVLNGSDPVAEVAIRQLSESSKLKLKSPRKKSTIIISGISKTSLSQDHDAALMQGYTASVDSTHQEDAPSHPERAAASAPPEEAESAQASLAPKPQEDELDSWDLEKEPQAAAWSSQVLLDPDGDELSESSMSVLEPGTAKKHKGGILRKGAKLFFRRRHQQKDPGMSQSHNDLVFLEQPEGSRRKGITLTRILNKKLLSRHRNKNTMNGAPVEPCT [C2CD2]
melting temperature (HeLa Kyoto [1]; cell cycle stage: G1/S): 50.9 °C | thermal stability score (HeLa Kyoto [2]; [5]): 0.427 | thermal stability score (HeLa Kyoto [2]; cell cycle stage: mitosis): 1.24 | solubility in G1/S (log2) (HeLa Kyoto [3]): 0.0136 | solubility change mitosis (log2) (HeLa Kyoto [4]): 0.0576

MAMGLFRVCLVVVTAIINHPLLFPRENATVPENEEEIIRKMQAHQEKLQLEQLRLEEEVARLAAEKEALEQVAEEGRQQNETRVAWDLWSTLCMILFLMIEVWRQDHQEGPSPECLGGEEDELPGLGGAPLQGLTLPNKATLGHFYERCIRGATADAARTREFLEGFVDDLLEALRSLCNRDTDMEVEDFIGVDSMYENWQVDRPLLCHLFVPFTPPEPYRFHPELWCSGRSVPLDRQGYGQIKVVRADGDTLSCICGKTKLGEDMLCLLHGRNSMAPPCGDMENLLCATDSLYLDTMQVMKWFQTALTRAWKGIAHKYEFDLAFGQLDSPGSLKIKFRSGKFMPFNLIPVIQCDDSDLYFVSHLPREPSEGTPASSTDWLLSFAVYERHFLRTTLKALPEGACHLSCLQIASFLLSKQSRLTGPSGLSSYHLKTALLHLLLLRQAADWKAGQLDARLHELLCFLEKSLLQKKLHHFFIGNRKVPEAMGLPEAVLRAEPLNLFRPFVLQRSLYRKTLDSFYEMLKNAPALISEYSLHVPSDQPTPKS [ITPRIP]
melting temperature (HeLa Kyoto [1]; cell cycle stage: G1/S): 52 °C | thermal stability score (HeLa Kyoto [2]; [5]): -0.0632 | thermal stability score (HeLa Kyoto [2]; cell cycle stage: mitosis): -0.00908 | solubility in G1/S (log2) (HeLa Kyoto [3]): 0.169 | solubility change mitosis (log2) (HeLa Kyoto [4]): -0.1

MAMLRVQPEAQAKVDVFREDLCTKTENLLGSYFPKKISELDAFLKEPALNEANLSNLKAPLDIPVPDPVKEKEKEERKKQQEKEDKDEKKKGEDEDKGPPCGPVNCNEKIVVLLQRLKPEIKDVIEQLNLVTTWLQLQIPRIEDGNNFGVAVQEKVFELMTSLHTKLEGFHTQISKYFSERGDAVTKAAKQPHVGDYRQLVHELDEAEYRDIRLMVMEIRNAYAVLYDIILKNFEKLKKPRGETKGMIY [PSME1]
melting temperature (HeLa Kyoto [1]; cell cycle stage: G1/S): 52.4 °C | melting temperature (HeLa Kyoto [1]; cell cycle stage: mitosis): 53.8 °C | thermal stability score (HeLa Kyoto [2]; [5]): -2.91 | thermal stability score (HeLa Kyoto [2]; cell cycle stage: mitosis): -1.23 | solubility in G1/S (log2) (HeLa Kyoto [3]): 0.819 | solubility change mitosis (log2) (HeLa Kyoto [4]): 0.0323

MAMQAAKRANIRLPPEVNRILYIRNLPYKITAEEMYDIFGKYGPIRQIRVGNTPETRGTAYVVYEDIFDAKNACDHLSGFNVCNRYLVVLYYNANRAFQKMDTKKKEEQLKLLKEKYGINTDPPK [SF3B6]
melting temperature (HeLa Kyoto [1]; cell cycle stage: G1/S): 51.1 °C | melting temperature (HeLa Kyoto [1]; cell cycle stage: mitosis): 51.2 °C | thermal stability score (HeLa Kyoto [2]; [5]): -2.41 | thermal stability score (HeLa Kyoto [2]; cell cycle stage: mitosis): -2.34 | solubility in G1/S (log2) (HeLa Kyoto [3]): -0.381 | solubility change mitosis (log2) (HeLa Kyoto [4]): 0.618

MAMRQTPLTCSGHTRPVVDLAFSGITPYGYFLISACKDGKPMLRQGDTGDWIGTFLGHKGAVWGATLNKDATKAATAAADFTAKVWDAVSGDELMTLAHKHIVKTVDFTQDSNYLLTGGQDKLLRIYDLNKPEAEPKEISGHTSGIKKALWCSEDKQILSADDKTVRLWDHATMTEVKSLNFNMSVSSMEYIPEGEILVITYGRSIAFHSAVSLDPIKSFEAPATINSASLHPEKEFLVAGGEDFKLYKYDYNSGEELESYKGHFGPIHCVRFSPDGELYASGSEDGTLRLWQTVVGKTYGLWKCVLPEEDSGELAKPKIGFPETTEEELEEIASENSDCIFPSAPDVKA [STRAP]
melting temperature (HeLa Kyoto [1]; cell cycle stage: G1/S): 52.3 °C | melting temperature (HeLa Kyoto [1]; cell cycle stage: mitosis): 52.2 °C | thermal stability score (HeLa Kyoto [2]; [5]): -1.2 | thermal stability score (HeLa Kyoto [2]; cell cycle stage: mitosis): -3.1 | solubility in G1/S (log2) (HeLa Kyoto [3]): 0.14 | solubility change mitosis (log2) (HeLa Kyoto [4]): -0.127

MAMVSEFLKQAWFIENEEQEYVQTVKSSKGGPGSAVSPYPTFNPSSDVAALHKAIMVKGVDEATIIDILTKRNNAQRQQIKAAYLQETGKPLDETLKKALTGHLEEVVLALLKTPAQFDADELRAAMKGLGTDEDTLIEILASRTNKEIRDINRVYREELKRDLAKDITSDTSGDFRNALLSLAKGDRSEDFGVNEDLADSDARALYEAGERRKGTDVNVFNTILTTRSYPQLRRVFQKYTKYSKHDMNKVLDLELKGDIEKCLTAIVKCATSKPAFFAEKLHQAMKGVGTRHKALIRIMVSRSEIDMNDIKAFYQKMYGISLCQAILDETKGDYEKILVALCGGN [ANXA1]
melting temperature (HeLa Kyoto [1]; cell cycle stage: G1/S): 49.1 °C | melting temperature (HeLa Kyoto [1]; cell cycle stage: mitosis): 49.6 °C | thermal stability score (HeLa Kyoto [2]; [5]): 3.41 | thermal stability score (HeLa Kyoto [2]; cell cycle stage: mitosis): 3.05 | solubility in G1/S (log2) (HeLa Kyoto [3]): 0.618 | solubility change mitosis (log2) (HeLa Kyoto [4]): 0.0587

Source: the supplement of paper PMC5998384
